{"source": "the DeepSol protein solubility set"}
{"test": "soluble on expression in E. coli; label from the status in PepcDB or PDB records"}
{"sequence": "GEVDMTIRGNITYSKNEVLEKDEENQVYSYLYQKGYRVDQVKGLIAEGLFADYDDIRTSPKQEFGTVQPGDIKYKDVNGDGVVNDNDKVAIGATTTPNLVYGIGASFAWKGIDVNVHFQGAGKSTFPIYGKCVYAFSESDWGNIFKDMISDRWVDSETAAKLGLHANENPNATYPRLTYGENKNNQQTSTYWMRDGRYIRLKNLDIGYTLPKSIVNKLHFNNIRIYIAGSNLITWSKFKTWDPETGNPRGEAYPLTKSVTMGLSVNL", "soluble on expression in E. coli": "not soluble"}
{"sequence": "MSLVTSVSKLMFLGGSNKLICHNKETFVKILENPNQPLITVSNHRSNIDDPLMWCILKFREFWRYKDRNRYTLAAHNICFTKQFHTTMFSLGRCVPCVRGEGVYQKGMDFCVDMLNDNKWVHIFPEGKVCTLESEPLRFKWGIGRLVMDAKTDPVILPVWCKEMEKVWPTQPPYYPKFGNTVTVHIGEPFFLSDLKKTVLSKSLTTEQMRKIITDEVQTRMYQLGEKVGDLPKGSSLEILRKNPPIEY", "soluble on expression in E. coli": "not soluble"}
{"sequence": "SSAEQSFLFSREEADTLRLKVEELEGERSRLEEEKRMLEAQLERRALQGDYDQSRTKVLHMSLNPTSVARQRLREDHSQLQAECERLRGLLRAMERGGTV", "soluble on expression in E. coli": "soluble"}
{"sequence": "MKAHVLFSGGKDSSLSAIILHNLGYEIQLVTVNFGVLDSYLHAEETAKIIGYSHKVELIDKELIEKSVDMILKDGYPGNGIQFVHKQVLEIISEKYDVIADGTRRDDRVPRLDHSELQSLEMRKNIQYVTPLMGFGHKTLRNLVNNYFIISEKESEELLKSDYETEIRELIRQRGIDPLEYFPKHIQSRVIGLKR", "soluble on expression in E. coli": "not soluble"}
{"sequence": "MGSDKIHHHHHHMLSTAKERQLKIVNRLKVEQFMRIIDLVELVNYSEATVKRDLVELEKEGLVRRTRGGAMIIDNKKIDLPYLMKMNERSNETSKIRIADIAKSLIRDDMVIFLDSSSTSLHLIDVLSKFDGLQIITNGVMTASMLSEFTNARVSILGGSILTKRYTVNGAKAYNDALTYNADIAFVSCRGIDYDKGATETHEGEALIKQAFRRQSSSLVLLVTEEKVGHKFMHQSLACHDIDYLITDFKLDSDVEEQFKTHQITCLY", "soluble on expression in E. coli": "not soluble"}
{"sequence": "MGLRPVSYTDSSVTPSVDGSIVLTAASVQSMPDSEESRLYGDDATYLAEGGRRQCPYTSNGPTFMETASFKKKRSKSADIWREDSLEFSLSDLSQEHLTSNEEILGSAEEKDCEEARGMETEASPRQLSTCQRANSLGDLYAQKNSGVKANGGPRNRFSSYCRNLVSDIPDLAKHKMPPAAAEETPPYSNYNTLPCRKSHCLSEGATNPQISLSKSMQGRRAKTTQDVNTGEGSEFADSGIEGATTDTDLLSRRSNATNSSYSPPTGRAFVGSDSGSSSTGDAARQGVYENFRRELEMSTTNSESLEEAGSAHSDEQSSGTLSSPGQSDILLTAAQGTVRKAGALAVKNFLVHKKNKKVESATRRKWKHYWVSLKGCTLFFYETDGRSGIDHNSVPKHAVWVENSIVQAVPEHPKKDFVFCLSNSLGDAFLFQTTSQTELENWITAIHSACAAAVARHHHKEDTLRLLKSEIKKLEQKIDMDEKMKKMGEMQLSSVTDSKKKKTILDQIFVWEQNLEQFQMDLFRFRCYLASLQGGELPNPKRLLAFASRPTKVAMGRLGIFSVSSFHALVAARTGEIGVRRRTQAMSRSASKRRSRFSSLWGLDTTSKKKQGRPTINQVFGEGTDAVKRSLEGIFDDTVPDGKREKEVVLPSVHQHNPDCDIWVHEYFTPSWFCLPNNQPALTVVRPGDTARDTLELICKTHQLDHSAHYLRLKFLMENRVQFYIPQPEEDIYELLYKEIEICPKVTQNIHIEKSDAAADNYGFLLSSVDEDGIRRLYVNSVKETGLASKKGLKAGDEILEINNRAAGTLNSSMLKDFLSQPSLGLLVRTYPEPEGGVELLENPPHRVDGPVDLGESPLAFLTSNPGHSLSSEQGSSAETAPEEGEGPDLESSDETDHSSKSTEQVAAFCRSLHEMSPSDSSPSPQDATSPQLATTRQLSDADKLRKVICELLETERTYVKDLNCLMERYLKPLQKETFLTQDELDVLFGNLTEMVEFQVEFLKTLEDGVRLVPDLEKLEKVDQFKKVLFSLGGSFLYYADRFKLYSAFCASHTKVPKVLVKAKTDTAFKAFLDAQNPRQQHSSTLESYLIKPIQRVLKYPLLLRELFALTDAESEEHYHLDVAIKTMNKVASHINEMQKIHEEFGAVFDQLIAEQTGEKKEVADLSMGDLLLHTSVIWLNPPASLGKWKKEPELAAFVFKTAVVLVYKDGSKQKKKLVGSHRLSIYEEWDPFRFRHMIPTEALQVRALPSADAEANAVCEIVHVKSESEGRPERVFHLCCSSPESRKDFLKSVHSILRDKHRRQLLKTESLPSAQQYVPFGGKRLCALKGARPAMSRAVSAPSKSLGRRRRRLARNRFTIDSDAISASSPEKEPQQPAGGGDTDRWVEEQFDLAQYEEQDDIKETDILSDDDEFCESLKGASVDRDLQEQLQAASISQRARGRRTLDSHASRMTQLKKQAALSGINGGLESASEEVIWVRREDFAPSRKLNTEI", "soluble on expression in E. coli": "soluble"}
{"sequence": "MGSDKIHHHHHHMATLKRIWLALNPQEAAAWQALLTTAGLAADRQVDYTVGIFEGETLLATGSLSGNIIKEVAVTPATQHENLLAQVIQALLDRLDDDGVTHSFVYTKPTTVKFFLSLGFKQLAATDAVVLLERGYPNLTDYVASLEKQRRPEKPAAAIVMNANPITRGHAYLIETAAKVNPVVYVFVLSAERSLFTADERLALVRKVAARWPNVVVLPTNDYMVSNTTFPSYFLKERADADVAAVQARLDAALFKQAIAPVLGITRRYVGEEPLSPVTAIYNRELAATFGSAIELIVVPRLMIDGDVVSATRVRAAMAQQDWKTVQQLVYPEVYQEIKERSTHGN", "soluble on expression in E. coli": "not soluble"}
{"sequence": "MGSDKIHHHHHHMVKIAVLGLGRVGLRAAYNLASRGFDVLGLDASNDAVSRARSLGLEARLYDVEGRKAGEYLRGQRVVAAFIALPYPVASRAVAHLSSAGIPVVVASIKPLRIDPGVVRAPILTEVGVSPGLSNVILYSMAAETGGGVSARVYVGSFGAREDGLLSHASTWRVEEMLEQYVTPAKLIQDGSEAVADPLDPSLWMEYSDPEHGVLECFPSQGLAGFISRRGSLFKELMECSLRRRGHLKVVLTMRGLGLLDSTPLKVSGCIVRPFDMAVKLVETRYPPDVGDVAVFTVEARRGGRWETLARASLRHGGGWSASSKMVGGASSAFAEVFAAEGLSEEEPGIIYPEDLYELGLAEKLLSLLPSHGVSLEVG", "soluble on expression in E. coli": "not soluble"}
{"sequence": "MNGQAKIAEPRRLYQQIADQIRELIDVGEFLPGTRLPAERELAQKLGVSRPSLREALIALEIDNTVEIRMGSGVYVSTEALQTTHHTKSLGDSPSELMQARAALEGATIVLAANRMTDETIAALRQILNTMQKEIEAGRKPLDQDRLFHVTIAEQSGNSVLARLVANLFDERHSPISAQLRVKFEDRDTWTRALQEHEAILAALELKDPLLAQAAMHIHLEGSKRRWVDS", "soluble on expression in E. coli": "soluble"}
{"sequence": "MATLDKFLSIKENDEKTKKKESKKKSSKSNKTSESLVSHDHFELTPEFENQLWKVADKLRKKMEVHQYKYVVLGLIFLRALTCRFYERRKEIEEELSNPNSELYTEDPELRKMILEDEDFYLSEGVLYLPKETRWDYFVENVMSPNIGEIIDTAIEILEEKYPDRLKDVIPKIYAQSPLDNHDYSYLINKFSEISFGKEHRVKDVFGRIYEYFLGKFTEVEGKLGGKFYTPRSLTKLIVDVLDVKGGSIFDPACGSGGFFVSALEKLEREGIDINELSIYGQDSDPMAYRLTKMNLIIRGAEGDIRIDDSYHDDKFMDMTFDYVVANPPFNDSEWDANRIKPDDPRLRIGNKKVPVPPNGNANYMWILHFIYHTAPNGKAGFVMANGALSAGNVEGEIRKAIIENDLVYGIVACPPKLFYNVSLPVSLWFIRKEKPDYMKGKVLFINAKNLYKQISRRQNILTEEHIKKIVDKFRMFESGEDEDKINELGFAKVATIDEIAKNGYVLTPGRYVGVKIEDDGIPFEVKMKEYSEELKKLLDEEEKLRNKVKEILDALGF", "soluble on expression in E. coli": "soluble"}
{"sequence": "MKKVEVLKRLENAGVIAVLRADSKEEALKISHAVVEGGMIGLELTFTVPQADEVIRSLVETYHDEKDIVIGAGTVLDAVTARLAIMAGAEFIVSPSFNRETAEICNLYQVPYLPGCMTITEMQTALKSGVDIVKLFPGSTYGPSIISAFQAPLPYLNIMPTGGVSLDNMASWFEAGVTAVGVGGNLLAHAKTGEFGKVTALAKQYMAKFREIKEN", "soluble on expression in E. coli": "not soluble"}
{"sequence": "MAGDPMTKQEKIQKTITFVKHILEKDASGHDWYHIERVHKMAISLSEQEGGNRFIIEMAALLHDVADEKLNESEEAGMKKVSDWLEELRVEEEESKHILHIIANMSYKGGHGGTVESLEGKIVQDADRLDALGAIGIARTFAYGGAKGRLMYDPTIPPREEMTKEEYRKNNDPSLNHFYEKLLKLKDLMNTNAAKQEAEIRHLYMEQFIEQFMKEWNAQILEHHHHHH", "soluble on expression in E. coli": "soluble"}
{"sequence": "MAHHHHHHMAQRVHYRRHNHYNTKSNKVRPVRTPGGKLTIHVVKKKAGKPKCADCKTAIQGVKALRPADNYRARRKNRTVARAYGGSICARCIRERIMRAFLFEEQKCVRQVLKEKKKQEKKVKKVKKEKKKVNAKEVKKTATDNKKAKKVADKKKGK", "soluble on expression in E. coli": "not soluble"}
{"sequence": "MGSDKIHHHHHHMPLLDIRNLTIELDTPEGTVKVLEKVSLTINPGEIHGLVGESGSGRSLLAKAILGVLGPNWHIIADRMMWDGKNLLEMSSKQRRCLMGSEMAMIFQDPSGSLDPVKTIGSQLIEAMVPNKNIPFWRRGKATYLNAQKWLHKVGIKKPKQLMKCYPWELSEGECQKVMIAMAVANHPKLLIADEPTNSMELNTQAQIFRLLSQLNQLQNVSILLVSHELETMVHWCDNLTILYSGQVMESGPVSEMVAMPYHPYTRALLKNLPDHTEKMRHKANLPTLQGSSPSLQHLPAGCRLGPRCPEAQRQCVKQPNLEHIKDRYFACHFPYQSEQEDDDAIA", "soluble on expression in E. coli": "not soluble"}
{"sequence": "MSEEISLSAEFIDRVKASVKPHWGKLGWVTYKRTYARWLPEKGRSENWDETVKRVVEGNINLDPRLQDSPSLELKQSLTEEAERLYKLIYGLGATPSGRNLWISGTDYQRRTGDSLNNCWFVAIRPQKYGDSKIVPSYLGKQEKAVSMPFSFLFDELMKGGGVGFSVARSNISQIPRVDFAIDLQLVVDETSESYDASVKVGAVGKNELVQDADSIYYRLPDTREGWVLANALLIDLHFAQTNPDRKQKLILDLSDIRPYGAEIHGFGGTASGPMPLISMLLDVNEVLNNKAGGRLTAVDAADICNLIGKAVVAGNVRRSAELALGSNDDQDFISMKQDQEKLMHHRWASNNSVAVDSAFSGYQPIAAGIRENGEPGIVNLDLSKNYGRIVDGYQAGIDGDVEGTNPCGEISLANGEPCNLFEVFPLIAEEQGWDLQEVFALAARYAKRVTFSPYDWEISREIIQKNRRIGISMSGIQDWLLTRLGNRVVTGFKDDFDPETHEAIKVPVYDKRAIKMVDQLYKAVVKADQDYSKTLGCNESIKHTTVKPSGTVAKLAGASEGMHFHYGAYLIQRIRFQDSDPLLPALKACGYRTEADIYTENTTCVEFPIKAVGADNPNFASAGTVSIAEQFATQAFLQTYWSDNAVSCTITFQDSEGDQVESLLRQYRFITKSTSLLPYFGGSLQQAPKEPIDKETYEKRSQEITGNVEEVFSQLNSDVKDLELVDQTDCEGGACPIK", "soluble on expression in E. coli": "soluble"}
{"sequence": "MKPADIDKLISEIRTAIYAEQSHRKIIEIDPDIYRKVRAALSDLQAEASEYFQKQDIENYLTMNNRFQTLKRDFRSLFQRRFEKIVAKAIYDISGETLSLLTDEEKEFIEKIHNIITEEFESFIPKREEKNEARAEAQPAPADESPTAIADQKPQEEPQVVQDQHQPPAEIPSENIEIKKEDGRYVLVMITEDLPPIAQLDRNYSLHSNDLVYLPQDLASILAKRKVALVLDQ", "soluble on expression in E. coli": "soluble"}
{"sequence": "MSKAEFQKFHDEMKALKNAGKHDEFAKKFAAKDAVFIGPLHDPCTADEAAKLAQSDKMAALVKADFDVKIDEVTQIGDVVVERCSISAKLPTGDKNGWSLTVWVKEGGAWKIRNSCITFKAPIPQ", "soluble on expression in E. coli": "not soluble"}
{"sequence": "MKPWLITPERLTSEQIGLLDHFFDRGLERLHLRLPSAGEEDYSQVIEAVAACYRRRIVVHDHPRLVGRYGLCGLHLPERVWKGMTDRPQLPDGCTVSASCHAIEDIESFPFRLDYCFLSPVFDSLCKVGYAGRFSPDS", "soluble on expression in E. coli": "not soluble"}
